The values that follow come from patent US20170008943A1 (Novo Nordisk, published 2017).

A word on the IC50: it is the concentration that gives 50% inhibition. Higher therefore signals a need for much substance.

The labels stand for the following.
B1: N^ε24-[(4S)-4-[[(4S)-4-[[(4S)-4-[[(4S)-4-acetamido-4-carboxybutanoyl]amino]-4-carboxybutanoyl]amino]-4-carboxybutanoyl]amino]-4-carboxybutanoyl]-[Imp1, Aib2, … (peptide)
peptide: [Desaminohistidyl][Aib]HGTFTSDYSKYLESRRAQDFVK([γGlu-γGlu-γGlu-γGlu-Ac])WLLST-OH
SMILES: CC(=O)N[C@@H](CCC(=O)N[C@@H](CCC(=O)N[C@@H](CCC(=O)N[C@@H](CCC(=O)NCCCC[C@H](NC(=O)[C@@H](NC(=O)[C@H](Cc1ccccc1)NC(=O)[C@H](CC(=O)O)NC(=O)[C@H](CCC(N)=O)NC(=O)[C@H](C)NC(=O)[C@H](CCCNC(=N)N)NC(=O)[C@H](CCCNC(=N)N)NC(=O)[C@H](CO)NC(=O)[C@H](CCC(=O)O)NC(=O)[C@H](CC(C)C)NC(=O)[C@H](Cc1ccc(O)cc1)NC(=O)[C@H](CCCCN)NC(=O)[C@H](CO)NC(=O)[C@H](Cc1ccc(O)cc1)NC(=O)[C@H](CC(=O)O)NC(=O)[C@H](CO)NC(=O)[C@@H](NC(=O)[C@H](Cc1ccccc1)NC(=O)[C@@H](NC(=O)CNC(=O)[C@H](Cc1c[nH]cn1)NC(=O)C(C)(C)NC(=O)CCc1c[nH]cn1)[C@@H](C)O)[C@@H](C)O)C(C)C)C(=O)N[C@@H](Cc1c[nH]c2ccccc12)C(=O)N[C@@H](CC(C)C)C(=O)N[C@@H](CC(C)C)C(=O)N[C@@H](CO)C(=O)N[C@H](C(=O)O)[C@@H](C)O)C(=O)O)C(=O)O)C(=O)O)C(=O)O
notes: Imp and Aib written X under substitutions
B2: N^ε28-[(4S)-4-[[(4S)-4-[[(4S)-4-[[(4S)-4-acetamido-4-carboxybutanoyl]amino]-4-carboxybutanoyl]amino]-4-carboxybutanoyl]amino]-4-carboxybutanoyl]-[Imp1, Aib2, … (peptide)
peptide: [Desaminohistidyl][Aib]HGTFTSDYSKYLESRRAQDFVAWLLK([γGlu-γGlu-γGlu-γGlu-Ac])T-OH
SMILES: CC(=O)N[C@@H](CCC(=O)N[C@@H](CCC(=O)N[C@@H](CCC(=O)N[C@@H](CCC(=O)NCCCC[C@H](NC(=O)[C@H](CC(C)C)NC(=O)[C@H](CC(C)C)NC(=O)[C@H](Cc1c[nH]c2ccccc12)NC(=O)[C@H](C)NC(=O)[C@@H](NC(=O)[C@H](Cc1ccccc1)NC(=O)[C@H](CC(=O)O)NC(=O)[C@H](CCC(N)=O)NC(=O)[C@H](C)NC(=O)[C@H](CCCNC(=N)N)NC(=O)[C@H](CCCNC(=N)N)NC(=O)[C@H](CO)NC(=O)[C@H](CCC(=O)O)NC(=O)[C@H](CC(C)C)NC(=O)[C@H](Cc1ccc(O)cc1)NC(=O)[C@H](CCCCN)NC(=O)[C@H](CO)NC(=O)[C@H](Cc1ccc(O)cc1)NC(=O)[C@H](CC(=O)O)NC(=O)[C@H](CO)NC(=O)[C@@H](NC(=O)[C@H](Cc1ccccc1)NC(=O)[C@@H](NC(=O)CNC(=O)[C@H](Cc1c[nH]cn1)NC(=O)C(C)(C)NC(=O)CCc1c[nH]cn1)[C@@H](C)O)[C@@H](C)O)C(C)C)C(=O)N[C@H](C(=O)O)[C@@H](C)O)C(=O)O)C(=O)O)C(=O)O)C(=O)O
notes: as for B1
B3: N^ε24-[(4S)-4-[[(4S)-4-[[(4S)-4-[[(4S)-4-acetamido-4-carboxybutanoyl]amino]-4-carboxybutanoyl]amino]-4-carboxybutanoyl]amino]-4-carboxybutanoyl]-[Imp1, Aib2, … (peptide)
peptide: [Desaminohistidyl][Aib]HGTFTSDYSKYLDLRRAQDFVK([γGlu-γGlu-γGlu-γGlu-Ac])WLLST-OH
SMILES: CC(=O)N[C@@H](CCC(=O)N[C@@H](CCC(=O)N[C@@H](CCC(=O)N[C@@H](CCC(=O)NCCCC[C@H](NC(=O)[C@@H](NC(=O)[C@H](Cc1ccccc1)NC(=O)[C@H](CC(=O)O)NC(=O)[C@H](CCC(N)=O)NC(=O)[C@H](C)NC(=O)[C@H](CCCNC(=N)N)NC(=O)[C@H](CCCNC(=N)N)NC(=O)[C@H](CC(C)C)NC(=O)[C@H](CC(=O)O)NC(=O)[C@H](CC(C)C)NC(=O)[C@H](Cc1ccc(O)cc1)NC(=O)[C@H](CCCCN)NC(=O)[C@H](CO)NC(=O)[C@H](Cc1ccc(O)cc1)NC(=O)[C@H](CC(=O)O)NC(=O)[C@H](CO)NC(=O)[C@@H](NC(=O)[C@H](Cc1ccccc1)NC(=O)[C@@H](NC(=O)CNC(=O)[C@H](Cc1c[nH]cn1)NC(=O)C(C)(C)NC(=O)CCc1c[nH]cn1)[C@@H](C)O)[C@@H](C)O)C(C)C)C(=O)N[C@@H](Cc1c[nH]c2ccccc12)C(=O)N[C@@H](CC(C)C)C(=O)N[C@@H](CC(C)C)C(=O)N[C@@H](CO)C(=O)N[C@H](C(=O)O)[C@@H](C)O)C(=O)O)C(=O)O)C(=O)O)C(=O)O
notes: Imp and Aib are written X under substitutions because they have no one-letter code
B4: N^ε24-[(4S)-4-[[(4S)-4-[[(4S)-4-[[(4S)-4-acetamido-4-carboxybutanoyl]amino]-4-carboxybutanoyl]amino]-4-carboxybutanoyl]amino]-4-carboxybutanoyl]-[Imp1, Aib2, … (peptide)
peptide: [Desaminohistidyl][Aib]HGTFTSDYSKYLESRRAQEFVK([γGlu-γGlu-γGlu-γGlu-Ac])WLLST-OH
SMILES: CC(=O)N[C@@H](CCC(=O)N[C@@H](CCC(=O)N[C@@H](CCC(=O)N[C@@H](CCC(=O)NCCCC[C@H](NC(=O)[C@@H](NC(=O)[C@H](Cc1ccccc1)NC(=O)[C@H](CCC(=O)O)NC(=O)[C@H](CCC(N)=O)NC(=O)[C@H](C)NC(=O)[C@H](CCCNC(=N)N)NC(=O)[C@H](CCCNC(=N)N)NC(=O)[C@H](CO)NC(=O)[C@H](CCC(=O)O)NC(=O)[C@H](CC(C)C)NC(=O)[C@H](Cc1ccc(O)cc1)NC(=O)[C@H](CCCCN)NC(=O)[C@H](CO)NC(=O)[C@H](Cc1ccc(O)cc1)NC(=O)[C@H](CC(=O)O)NC(=O)[C@H](CO)NC(=O)[C@@H](NC(=O)[C@H](Cc1ccccc1)NC(=O)[C@@H](NC(=O)CNC(=O)[C@H](Cc1c[nH]cn1)NC(=O)C(C)(C)NC(=O)CCc1c[nH]cn1)[C@@H](C)O)[C@@H](C)O)C(C)C)C(=O)N[C@@H](Cc1c[nH]c2ccccc12)C(=O)N[C@@H](CC(C)C)C(=O)N[C@@H](CC(C)C)C(=O)N[C@@H](CO)C(=O)N[C@H](C(=O)O)[C@@H](C)O)C(=O)O)C(=O)O)C(=O)O)C(=O)O
notes: as for B1
B5: N^ε24-[(4S)-4-[[(4S)-4-[[(4S)-4-[[(4S)-4-acetamido-4-carboxybutanoyl]amino]-4-carboxybutanoyl]amino]-4-carboxybutanoyl]amino]-4-carboxybutanoyl]-[Imp1, Aib2, … (peptide)
peptide: [Desaminohistidyl][Aib]HGTFTSDYSKYLDVRRAQDFVK([γGlu-γGlu-γGlu-γGlu-Ac])WLLST-OH
SMILES: CC(=O)N[C@@H](CCC(=O)N[C@@H](CCC(=O)N[C@@H](CCC(=O)N[C@@H](CCC(=O)NCCCC[C@H](NC(=O)[C@@H](NC(=O)[C@H](Cc1ccccc1)NC(=O)[C@H](CC(=O)O)NC(=O)[C@H](CCC(N)=O)NC(=O)[C@H](C)NC(=O)[C@H](CCCNC(=N)N)NC(=O)[C@H](CCCNC(=N)N)NC(=O)[C@@H](NC(=O)[C@H](CC(=O)O)NC(=O)[C@H](CC(C)C)NC(=O)[C@H](Cc1ccc(O)cc1)NC(=O)[C@H](CCCCN)NC(=O)[C@H](CO)NC(=O)[C@H](Cc1ccc(O)cc1)NC(=O)[C@H](CC(=O)O)NC(=O)[C@H](CO)NC(=O)[C@@H](NC(=O)[C@H](Cc1ccccc1)NC(=O)[C@@H](NC(=O)CNC(=O)[C@H](Cc1c[nH]cn1)NC(=O)C(C)(C)NC(=O)CCc1c[nH]cn1)[C@@H](C)O)[C@@H](C)O)C(C)C)C(C)C)C(=O)N[C@@H](Cc1c[nH]c2ccccc12)C(=O)N[C@@H](CC(C)C)C(=O)N[C@@H](CC(C)C)C(=O)N[C@@H](CO)C(=O)N[C@H](C(=O)O)[C@@H](C)O)C(=O)O)C(=O)O)C(=O)O)C(=O)O
notes: as for B1
B6: N^ε24-[(4S)-4-[[(4S)-4-[[(4S)-4-[[(4S)-4-acetamido-4-carboxybutanoyl]amino]-4-carboxybutanoyl]amino]-4-carboxybutanoyl]amino]-4-carboxybutanoyl]-[Imp1, Aib2, … (peptide)
peptide: [Desaminohistidyl][Aib]HGTFTSDLSKYLESRRAQDFVK([γGlu-γGlu-γGlu-γGlu-Ac])WLLST-OH
SMILES: CC(=O)N[C@@H](CCC(=O)N[C@@H](CCC(=O)N[C@@H](CCC(=O)N[C@@H](CCC(=O)NCCCC[C@H](NC(=O)[C@@H](NC(=O)[C@H](Cc1ccccc1)NC(=O)[C@H](CC(=O)O)NC(=O)[C@H](CCC(N)=O)NC(=O)[C@H](C)NC(=O)[C@H](CCCNC(=N)N)NC(=O)[C@H](CCCNC(=N)N)NC(=O)[C@H](CO)NC(=O)[C@H](CCC(=O)O)NC(=O)[C@H](CC(C)C)NC(=O)[C@H](Cc1ccc(O)cc1)NC(=O)[C@H](CCCCN)NC(=O)[C@H](CO)NC(=O)[C@H](CC(C)C)NC(=O)[C@H](CC(=O)O)NC(=O)[C@H](CO)NC(=O)[C@@H](NC(=O)[C@H](Cc1ccccc1)NC(=O)[C@@H](NC(=O)CNC(=O)[C@H](Cc1c[nH]cn1)NC(=O)C(C)(C)NC(=O)CCc1c[nH]cn1)[C@@H](C)O)[C@@H](C)O)C(C)C)C(=O)N[C@@H](Cc1c[nH]c2ccccc12)C(=O)N[C@@H](CC(C)C)C(=O)N[C@@H](CC(C)C)C(=O)N[C@@H](CO)C(=O)N[C@H](C(=O)O)[C@@H](C)O)C(=O)O)C(=O)O)C(=O)O)C(=O)O
notes: as for B1
B7: N^ε24-[(4S)-4-[[(4S)-4-[[(4S)-4-[[(4S)-4-acetamido-4-carboxybutanoyl]amino]-4-carboxybutanoyl]amino]-4-carboxybutanoyl]amino]-4-carboxybutanoyl]-[Imp1, His3, … (peptide)
peptide: [Desaminohistidyl]SHGTFTSDYSKYLESRRAQEFVK([γGlu-γGlu-γGlu-γGlu-Ac])WLLST-OH
SMILES: CC(=O)N[C@@H](CCC(=O)N[C@@H](CCC(=O)N[C@@H](CCC(=O)N[C@@H](CCC(=O)NCCCC[C@H](NC(=O)[C@@H](NC(=O)[C@H](Cc1ccccc1)NC(=O)[C@H](CCC(=O)O)NC(=O)[C@H](CCC(N)=O)NC(=O)[C@H](C)NC(=O)[C@H](CCCNC(=N)N)NC(=O)[C@H](CCCNC(=N)N)NC(=O)[C@H](CO)NC(=O)[C@H](CCC(=O)O)NC(=O)[C@H](CC(C)C)NC(=O)[C@H](Cc1ccc(O)cc1)NC(=O)[C@H](CCCCN)NC(=O)[C@H](CO)NC(=O)[C@H](Cc1ccc(O)cc1)NC(=O)[C@H](CC(=O)O)NC(=O)[C@H](CO)NC(=O)[C@@H](NC(=O)[C@H](Cc1ccccc1)NC(=O)[C@@H](NC(=O)CNC(=O)[C@H](Cc1c[nH]cn1)NC(=O)[C@H](CO)NC(=O)CCc1c[nH]cn1)[C@@H](C)O)[C@@H](C)O)C(C)C)C(=O)N[C@@H](Cc1c[nH]c2ccccc12)C(=O)N[C@@H](CC(C)C)C(=O)N[C@@H](CC(C)C)C(=O)N[C@@H](CO)C(=O)N[C@H](C(=O)O)[C@@H](C)O)C(=O)O)C(=O)O)C(=O)O)C(=O)O
notes: Imp written X under substitutions

*1 amine or outer side, *2 acyl side, *3 side chain or, on linkers, in order; H or OH if unused. Side-chain parts run from the residue outwards. [ ]: non-standard residue; d: D form. The star is where a group is joined. γGlu = O=C(O)[C@H](CCC(=O)[*:2])N[*:1]; Desaminohistidyl = O=C(CCc1c[nH]cn1)*; Aib = CC(C)(N)C(=O)O

For the first assay, the target named is T1, human glucagon receptor (human, UniProt P47871 26-477).
T1 construct: whole, on cells; Potency assay (I)(b): whole BHK cells (clone pLJ6'-4-25) with CRE luciferase; also called hGlucagonR; hGCGR
T1 sequence (P47871 26-477): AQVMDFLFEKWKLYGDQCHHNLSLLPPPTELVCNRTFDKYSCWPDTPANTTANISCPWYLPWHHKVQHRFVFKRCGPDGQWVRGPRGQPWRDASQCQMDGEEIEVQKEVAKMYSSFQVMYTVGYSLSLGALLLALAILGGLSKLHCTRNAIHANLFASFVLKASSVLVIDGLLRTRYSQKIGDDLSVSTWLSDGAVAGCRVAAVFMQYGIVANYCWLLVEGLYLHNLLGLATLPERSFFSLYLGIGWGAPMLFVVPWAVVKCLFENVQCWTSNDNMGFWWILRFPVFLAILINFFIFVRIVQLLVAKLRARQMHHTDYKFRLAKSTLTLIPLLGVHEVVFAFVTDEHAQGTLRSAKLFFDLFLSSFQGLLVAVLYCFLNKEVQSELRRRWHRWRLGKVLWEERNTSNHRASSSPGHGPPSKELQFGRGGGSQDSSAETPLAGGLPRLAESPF
Kind of assay: displacement of 125I-glucagon from BHK membranes with human glucagon receptor (SPA), Assay (II)(b). (In a radioligand displacement assay an active substance lowers the binding of a labelled ligand.)
B1 displayed a 50% inhibitory concentration (IC50) of 1.9 nM.
The same measure, in the same setting: then B2, with 1.8 nM; and B3, with 0.2 nM.
The same measure, in the same setting: then B4, with 1 nM; and B5, with 0.5 nM.
The same measure, in the same setting: the value for B6 was 4.9 nM.
Turning to B7, the IC50 stood at 1.8 nM. This IC50 is about 2.7-fold lower than that of the molecule before.

The target of a further assay is T1, human glucagon receptor. The assay can be described thus: cell-based or functional assay.
Turning to B1, the “EC50 hGlucagonR (pM), CRE luciferase reporter in BHK cells” value stood at 5 pM.
On the same count and under the same terms, then B2, with 5 pM; and B3, with 1 pM; and B4, with 2 pM.
Regarding B5, the “EC50 hGlucagonR (pM), CRE luciferase reporter in BHK cells” value turned out to be 2 pM.
On the same count and under the same terms, then B6, with 10 pM; and B7, with 4.7 pM.
